Laboratory results reported in patent US7087420B1, “Microbial β-glucuronidase genes, gene products and uses thereof” (Cambia, priority 1997, dated 2006).
Where a chain is given by its changes, count along the chain named.

B1: E. coli GUS: E. coli β-glucuronidase encoded by gusA, 603 amino acids, used as comparison standard (protein, UniProt P05804 1-603, looked up)
Beta-glucuronidase: MLRPVETPTREIKKLDGLWAFSLDRENCGIDQRWWESALQESRAIAVPGSFNDQFADADIRNYAGNVWYQREVFIPKGWAGQRIVLRFDAVTHYGKVWVNNQEVMEHQGGYTPFEADVTPYVIAGKSVRITVCVNNELNWQTIPPGMVITDENGKKKQSYFHDFFNYAGIHRSVMLYTTPNTWVDDITVVTHVAQDCNHASVDWQVVANGDVSVELRDADQQVVATGQGTSGTLQVVNPHLWQPGEGYLYELCVTAKSQTECDIYPLRVGIRSVAVKGEQFLINHKPFYFTGFGRHEDADLRGKGFDNVLMVHDHALMDWIGANSYRTSHYPYAEEMLDWADEHGIVVIDETAAVGFNLSLGIGFEAGNKPKELYSEEAVNGETQQAHLQAIKELIARDKNHPSVVMWSIANEPDTRPQGAREYFAPLAEATRKLDPTRPITCVNVMFCDAHTDTISDLFDVLCLNRYYGWYVQSGDLETAEKVLEKELLAWQEKLHQPIIITEYGVDTLAGLHSMYTDMWSEEYQCAWLDMYHRVFDRVSAVVGEQVWNFADFATSQGILRVGGNKKGIFTRDRKPKSAAFLLQKRWTGMNFGEKPQQGGKQ
B2: A: E. coli GUS mutein, Cys 28 changed to Asn (protein, UniProt P05804 1-603, looked up, variant C28N)
Beta-glucuronidase: B1 Beta-glucuronidase with C28N
B3: C: E. coli GUS mutein, Cys 197 changed to Ser (protein, UniProt P05804 1-603, looked up, variant C197S)
Beta-glucuronidase: B1 Beta-glucuronidase with C197S
B4: A, B, C, D, E: E. coli GUS mutein, Cys 28, 133, 197, 253, 262 changed to Asn, Ala, Ser, Glu, Ser (protein, UniProt P05804 1-603, looked up, variant C28N C133A C197S C253E C262S)
Beta-glucuronidase: B1 Beta-glucuronidase with C28N, C133A, C197S, C253E, C262S
B5: D, E: E. coli GUS mutein, Cys 253 to Glu and Cys 262 to Ser (protein, UniProt P05804 1-603, looked up, variant C253E C262S)
Beta-glucuronidase: B1 Beta-glucuronidase with C253E, C262S
B6: I: E. coli GUS mutein, Cys 527 changed to Lys (protein, UniProt P05804 1-603, looked up, variant C527K)
Beta-glucuronidase: B1 Beta-glucuronidase with C527K
B7: A, B, C, D, E, I: E. coli GUS mutein, Cys 28, 133, 197, 253, 262, 527 changed to Asn, Ala, Ser, Glu, Ser, Lys (protein, UniProt P05804 1-603, looked up, variant C28N C133A C197S C253E C262S C527K)
Beta-glucuronidase: B1 Beta-glucuronidase with C28N, C133A, C197S, C253E, C262S, C527K
B8: B, C, D, E: E. coli GUS mutein, Cys 133, 197, 253, 262 changed to Ala, Ser, Glu, Ser (protein, UniProt P05804 1-603, looked up, variant C133A C197S C253E C262S)
Beta-glucuronidase: B1 Beta-glucuronidase with C133A, C197S, C253E, C262S
B9: C, D, E: E. coli GUS mutein, Cys 197 to Ser, Cys 253 to Glu, Cys 262 to Ser (protein, UniProt P05804 1-603, looked up, variant C197S C253E C262S)
Beta-glucuronidase: B1 Beta-glucuronidase with C197S, C253E, C262S
B10: B: E. coli GUS mutein, Cys 133 changed to Ala (protein, UniProt P05804 1-603, looked up, variant C133A)
Beta-glucuronidase: B1 Beta-glucuronidase with C133A

What was measured:
Format in all cases: cell-based
[1] = test system: KW1 cells; experiment: Cellular localization: GUS activity in periplasm fraction, β-gal activity subtracted; conditions: percent of total activity in periplasm fraction, expressed in E. coli, β-gal background subtracted
Source text: Secretion index maybe calculated as the percentage of total GUS activity in periplasm or other extracellular environment less the percentage of total β-galactosidase activity found in the same extracellular environment.
Secretion of the enzyme may be verified by assaying for GUS activity in the extracellular environment. If the cells secreting GUS are gram-positive bacteria, yeasts, molds, plants, or other organisms with cell walls, activity may be assayed in the culture medium and in a cell extract, however, the protein may not be transported through the cell wall. Thus, if no or low activity of a secreted form of GUS is found in the culture medium, protoplasts made by osmotic shock or enzymatic digestion of the cell wall or other suitable procedure and the supernatant are assayed for GUS activity. […]
Cellular fractions (e.g., periplasm, spheroplast, supernatant, etc.) are prepared from KW1 cells transformed with pRAJa17.1 or a subfragment that contains the GUS gene and from E. coli cells that express β-glucuronidase. GUS activity and β-galactosidase (β-gal) activity is determined for each fraction. The percent of total activity in the periplasm fraction for GUS and β-gal (a non-secreted protein) are calculated; the amount of β-gal activity is considered background and thus is subtracted from the amount of β-glucuronidase activity. […]

[2] = test system: plants (rice, Millin variety); experiment: GUS activity of transfectants with expression vectors, plant host; set-up: key: all tested transfectants exhibit GUS activity (indicated by a +)
Description: (§1) A series of expression vector constructs of three different GUS genes, E. coli GUS, Staphylococcus GUS, and the AO version of codon-optimized Staphylococcus GUS, are prepared and tested for enzymatic activity in E. coli, yeast, and plants (rice, Millin variety). […] The E. coli vector contains a sequence encoding a pelB signal peptide, the yeast vectors contain a sequence encoding either an invertase or Mat alpha signal peptide, and the plant vectors contain a sequence encoding either a glycine-rich protein (GRP) or extensin signal peptide.
(§2) The GUS genes are cloned into each of these vectors using standard recombinant techniques of isolation of a GUS-gene containing fragment and ligation into an appropriately restricted vector. The recombinant vectors are then transfected into the appropriate host and transfectants are tested for GUS activity.
(§3) Moreover, similar results are obtained regardless of the presence or absence of a signal peptide.

[3] = test system: yeast; experiment: GUS activity of transfectants with expression vectors, yeast host; set-up: key: all tested transfectants exhibit GUS activity (indicated by a +)
Description: as §1, §2, §3

[4] = test system: E. coli; experiment: GUS activity of transfectants with expression vectors, E. coli host; set-up: key: all tested transfectants exhibit GUS activity (indicated by a +); conditions: No SP (signal peptide)
Description: as §1, §2, §3

[5] = test system: KW1; experiment: X-GlcA staining of low-cysteine E. coli GUS muteins in KW1; conditions: pBS backbone in KW1, staining with X-GlcA
Source text: Single and multiple Cys muteins are constructed by site-directed mutagenesis techniques. Eight of the nine cysteine residues in E. coli GUS are changed to the corresponding residue found in human GUS based on alignment of the two protein sequences. One of the E. coli GUS cysteine residues, amino acid 463, aligns with a cysteine residue in human GUS and was not altered. The corresponding amino acids between E. coli GUS and human GUS are shown below.
The mutein GUS genes are cloned into a pBS backbone. The mutations are confirmed by diagnostic restriction site changes and by DNA sequence analysis. Recombinant vectors are transfected into KW1 and GUS activity assayed by staining with X-GlcA (5-bromo-4-chloro-3-indolyl-β-D-glucuronide).

| Molecule | GUS activity [5] | also measured |
| --- | --- | --- |
| B1 | – | GUS activity found in the periplasm [1]: less than 10%; GUS activity ([2]; Extensin signal peptide): +; GUS activity ([2]; GRP signal peptide): +; GUS activity ([2]; No SP): +; GUS activity ([3]; Invertase signal peptide): +; GUS activity ([3]; Mat α signal peptide): +; GUS activity ([3]; No SP): +; GUS activity [4]: + |
| B2 | Yes | – |
| B3 | Yes | – |
| B4 | Yes | – |
| B5 | Yes | – |
| B6 | No | – |
| B7 | No | – |
| B8 | Yes | – |
| B9 | Yes | – |
| B10 | Yes | – |
